In publication PMC8984176, “Tuftsin: A Natural Molecule Against SARS-CoV-2 Infection” (Frontiers in Molecular Biosciences, 2022) one finds Kd data, which are given here for 1 substance.

In assay [1] the target is recombinant human ACE2 protein (human) (UniProt Q9BYF1). Briefly: SPR; Biacore T200; ACE2 or NRP1 amine-coupled on a CM5 chip (about 10,000 RU); tuftsin flowed at gradient concentrations; 25°C, 30 µl/min; 1×PBS, 0.05% Tween 20, 5% dimethyl sulfoxide, pH 7.4; steady state affinity model. (Surface plasmon resonance follows binding to a sensor surface in real time, without labels.)

Assay [2] has as its target recombinant human NRP1 protein (human) (UniProt O14786). The assay is described as above.

Sequence of recombinant human ACE2 protein (human) (Q9BYF1 18-740): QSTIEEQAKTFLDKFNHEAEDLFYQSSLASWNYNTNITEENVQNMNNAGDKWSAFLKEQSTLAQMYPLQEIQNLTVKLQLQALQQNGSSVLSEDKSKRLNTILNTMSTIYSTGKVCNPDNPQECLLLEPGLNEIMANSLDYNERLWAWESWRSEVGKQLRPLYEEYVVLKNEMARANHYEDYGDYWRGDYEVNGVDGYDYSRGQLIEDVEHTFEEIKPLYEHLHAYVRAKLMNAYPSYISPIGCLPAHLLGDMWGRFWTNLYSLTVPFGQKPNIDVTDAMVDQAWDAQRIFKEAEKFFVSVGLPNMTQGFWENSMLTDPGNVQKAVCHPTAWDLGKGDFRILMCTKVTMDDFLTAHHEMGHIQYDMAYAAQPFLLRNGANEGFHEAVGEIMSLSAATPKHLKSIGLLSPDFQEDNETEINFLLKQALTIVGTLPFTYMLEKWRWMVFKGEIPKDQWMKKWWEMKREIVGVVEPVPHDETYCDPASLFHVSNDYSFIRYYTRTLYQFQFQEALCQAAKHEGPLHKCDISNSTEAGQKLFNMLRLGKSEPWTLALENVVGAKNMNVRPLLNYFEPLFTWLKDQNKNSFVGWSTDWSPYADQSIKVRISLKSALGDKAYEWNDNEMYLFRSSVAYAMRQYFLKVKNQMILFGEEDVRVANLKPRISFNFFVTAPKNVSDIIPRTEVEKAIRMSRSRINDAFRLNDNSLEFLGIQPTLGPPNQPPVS

With tuftsin (peptide), the figures for the Kd in assay [1] and in assay [2] were 460 µM and 10.7 µM, respectively.
